From doi:10.1101/2020.04.09.034405

Assays:
[1] = target: EPHA2 fused to a fluorescent protein for FRET (EPHA2-mRuby3; EPHA2-mClover3) (human) (UniProt P29317); test: FRET or BRET
[2] = target: ROBO1 fused to a fluorescent protein for FRET (ROBO1-mClover3) (human) (UniProt Q9Y6N7); test: FRET or BRET
Sequence of UniProt Q9Y6N7 (Q9Y6N7 26-1651): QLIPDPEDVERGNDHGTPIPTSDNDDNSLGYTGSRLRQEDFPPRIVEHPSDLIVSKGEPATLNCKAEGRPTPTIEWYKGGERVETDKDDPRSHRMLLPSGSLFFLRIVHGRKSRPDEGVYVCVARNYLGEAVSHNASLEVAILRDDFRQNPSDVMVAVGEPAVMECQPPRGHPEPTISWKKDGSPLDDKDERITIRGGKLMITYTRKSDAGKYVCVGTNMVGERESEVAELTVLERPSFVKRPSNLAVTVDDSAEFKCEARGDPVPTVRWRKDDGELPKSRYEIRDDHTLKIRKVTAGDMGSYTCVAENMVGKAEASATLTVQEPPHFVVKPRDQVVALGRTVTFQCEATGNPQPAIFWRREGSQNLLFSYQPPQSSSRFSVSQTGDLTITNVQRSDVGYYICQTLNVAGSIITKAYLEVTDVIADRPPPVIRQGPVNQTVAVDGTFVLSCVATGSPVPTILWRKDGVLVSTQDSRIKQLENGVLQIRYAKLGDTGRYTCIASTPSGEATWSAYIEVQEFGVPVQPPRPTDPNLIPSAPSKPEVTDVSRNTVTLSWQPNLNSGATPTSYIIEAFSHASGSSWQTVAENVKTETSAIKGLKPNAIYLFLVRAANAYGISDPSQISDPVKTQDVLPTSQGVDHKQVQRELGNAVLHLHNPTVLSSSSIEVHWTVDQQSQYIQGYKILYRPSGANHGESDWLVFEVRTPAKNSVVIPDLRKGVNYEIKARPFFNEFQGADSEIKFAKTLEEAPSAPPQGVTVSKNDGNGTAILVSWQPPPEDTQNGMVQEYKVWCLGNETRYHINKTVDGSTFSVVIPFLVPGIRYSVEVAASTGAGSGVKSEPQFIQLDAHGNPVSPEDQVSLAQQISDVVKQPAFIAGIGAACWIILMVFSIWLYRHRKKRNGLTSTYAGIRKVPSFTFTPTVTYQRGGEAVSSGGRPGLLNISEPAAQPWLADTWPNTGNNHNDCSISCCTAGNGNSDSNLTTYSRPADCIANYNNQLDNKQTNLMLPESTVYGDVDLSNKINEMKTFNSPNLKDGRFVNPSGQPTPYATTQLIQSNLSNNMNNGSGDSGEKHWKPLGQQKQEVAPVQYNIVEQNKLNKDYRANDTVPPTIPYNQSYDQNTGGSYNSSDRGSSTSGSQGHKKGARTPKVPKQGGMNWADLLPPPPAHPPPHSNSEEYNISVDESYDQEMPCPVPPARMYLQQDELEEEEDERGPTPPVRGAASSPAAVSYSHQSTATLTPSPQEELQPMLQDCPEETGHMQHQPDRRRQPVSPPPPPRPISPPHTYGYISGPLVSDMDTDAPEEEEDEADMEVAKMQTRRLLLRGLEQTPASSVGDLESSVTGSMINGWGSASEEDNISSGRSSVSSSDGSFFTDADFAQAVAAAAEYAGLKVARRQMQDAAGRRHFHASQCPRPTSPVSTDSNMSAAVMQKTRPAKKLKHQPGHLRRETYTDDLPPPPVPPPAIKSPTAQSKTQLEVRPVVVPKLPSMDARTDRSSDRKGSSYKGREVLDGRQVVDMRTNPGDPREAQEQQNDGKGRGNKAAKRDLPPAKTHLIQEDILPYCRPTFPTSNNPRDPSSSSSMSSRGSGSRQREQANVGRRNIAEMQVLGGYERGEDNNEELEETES

N-FRET [1]: 0.347
N-FRET [2]: 0.234
Substance: EPHA2 fused to a fluorescent protein for FRET (EPHA2-mRuby3; EPHA2-mClover3) (from UniProt P29317 24-976) (receptor)
